From article PMC5306355, “Clustered Genes Encoding 2-Keto-L-Gulonate Reductase and L-Idonate 5-Dehydrogenase in the Novel Fungal D-Glucuronic Acid Pathway” (Frontiers in Microbiology, 2017)

How the values were obtained:
Assay type in all cases: biochemical, Aspergillus niger
GluE [1] = assay: NADH oxidation followed at […] nm; settings: 400 μM NADH; 50 mM Tris pH 7
GluE [2] = assay: NADH formation followed at […] nm; settings: 400 μM NAD+; 50 mM Tris pH 8
purified protein [3] = substrate: O=C(O)C(=O)[C@@H](O)[C@H](O)[C@@H](O)CO; assay: purified protein; settings: NADPH as co-substrate (Methods print 400 μM NADH), 50 mM Tris pH 7
purified protein [4] = substrate: O=C(O)[C@H](O)[C@@H](O)[C@H](O)[C@@H](O)CO; assay: purified protein; settings: NADP+ as co-substrate (Methods print 400 μM NAD+), 50 mM Tris pH 8

`O=C(CO)[C@@H](O)[C@H](O)[C@@H](O)C(=O)O` [5-keto-D-gluconate] was tested, and the Km (GluE [1]) was 8.4 ± 0.1 mM.

For `O=C(O)[C@H](O)[C@@H](O)[C@H](O)[C@@H](O)CO` [L-idonate], the Km (GluE [2]) was 30.9 ± 1.5 mM.

B1: GluD (Aspergillus niger) (protein)
chain: MPAALLIGAITHSMPEWNDLSSILTLKEFPSGTREDFIRNCRDGQYDDVVAIYRSNTSTKFTGPFDAELLSFLPSSLKYIAHNGAGYDNIDVAACTKKGIAVSSTPVAVNNATADVAIFLMIGALRQAYIPVTSLREGKFLGQTGLGHDPQNKVLGILGMGGIGREVARRARAFGMTIQYHNRSRLSPELEDGATYVSFDELLANSDVLSLNLALNASTRHIIGKTEFQKMKDGVIIVNTARGALIDEKALVEALESGKVWSAGLDVYENEPAIEPGLVNNPRVMLLPHIGTMTYETQREMELLVLNNLRSGVETGKMITLVPEQKDVFGK
B1 was tested, and the Km (purified protein [3]) was 25.3 ± 1.2 mM, the Vmax (purified protein [3]) was 34.9 µmol/min/mg and the kcat (purified protein [3]) was 21.4 ± 0.3 s⁻¹. It also gave a Km (purified protein [4]) of 12.6 ± 0.8 mM, a Vmax (purified protein [4]) of 1.7 µmol/min/mg and a kcat (purified protein [4]) of 1.1 s⁻¹.
